In assay [1] the target is T1, human LAG3, full length, stably expressed on cells (human, UniProt P18627 23-525).
T1 construct: whole, on cells; also called CHOK1-human LAG3
T1 sequence (looked up): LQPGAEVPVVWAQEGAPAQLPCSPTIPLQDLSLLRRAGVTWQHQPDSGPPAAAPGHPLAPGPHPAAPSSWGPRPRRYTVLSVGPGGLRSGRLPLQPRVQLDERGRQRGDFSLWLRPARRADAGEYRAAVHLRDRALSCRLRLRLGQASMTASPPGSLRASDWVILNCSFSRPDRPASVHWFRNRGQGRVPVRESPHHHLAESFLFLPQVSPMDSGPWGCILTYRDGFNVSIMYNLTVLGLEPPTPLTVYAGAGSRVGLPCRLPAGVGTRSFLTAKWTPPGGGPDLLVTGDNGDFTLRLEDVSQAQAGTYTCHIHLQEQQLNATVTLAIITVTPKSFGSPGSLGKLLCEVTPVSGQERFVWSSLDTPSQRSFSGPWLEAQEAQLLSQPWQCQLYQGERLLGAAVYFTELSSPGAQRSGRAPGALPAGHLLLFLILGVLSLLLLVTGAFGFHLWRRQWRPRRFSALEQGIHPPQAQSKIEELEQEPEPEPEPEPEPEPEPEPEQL
Description: FACS on 293F cells stably expressing human LAG3. As to the method:
Briefly the antibodies were incubated with 2×10⁵ target cells at 4° C. for 1 hour. After washing, fluorescence labeled anti-mouse IgG 2nd antibody (Life Technologies) was added and incubated at 4° C. for 1 hour. Geometric median fluorescence intensity (MFI) was detected and EC₅₀ was calculated using GraphPad Prism9.0.
MFI was detected and EC₅₀ was calculated using GraphPad Prism9.0.

Assay [2] has as its target T2, mFc tagged human LAG3 ECD recombinant protein (human, UniProt P18627 23-450).
T2 construct: extracellular domain; purchased from Biointron; not shown: mouse IgG Fc (mFc) tag
T2 sequence (looked up): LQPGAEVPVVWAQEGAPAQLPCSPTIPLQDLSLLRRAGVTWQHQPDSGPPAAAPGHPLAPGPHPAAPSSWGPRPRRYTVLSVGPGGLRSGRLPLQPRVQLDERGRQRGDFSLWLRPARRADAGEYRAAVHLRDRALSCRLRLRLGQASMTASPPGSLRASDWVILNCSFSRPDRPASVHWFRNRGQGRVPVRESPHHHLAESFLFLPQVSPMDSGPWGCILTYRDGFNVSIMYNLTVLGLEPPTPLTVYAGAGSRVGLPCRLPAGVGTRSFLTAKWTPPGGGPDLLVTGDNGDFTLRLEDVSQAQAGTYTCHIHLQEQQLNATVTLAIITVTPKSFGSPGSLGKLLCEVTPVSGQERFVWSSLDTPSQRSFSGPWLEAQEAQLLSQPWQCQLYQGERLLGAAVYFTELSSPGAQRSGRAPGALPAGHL
Nature of the assay: competitive FACS: mFc-LAG3 ECD binding to Raji cells (MHC II). Here is the method:
(§1) Activity of the purified chimeric antibodies to block LAG3 and MHC II interaction was determined by competitive FACS assay. […] After washing, dye labeled anti-mouse Fc 2nd antibody (Sigma) was added and incubated at 37° C. for 1 hour. Fluorescence intensity was detected.

For assay [3], the target named is T2, mFc tagged human LAG3 ECD recombinant …. Nature of the assay: competitive FACS: mFc tagged human LAG3 ECD binding to MHC II on Raji cells. As to the method:
as §1

The target in assay [4] is T3, human LAG3 (form used in Octet, Biacore and HDX-MS not given) (human, UniProt P18627 23-450, limits assumed).
T3 sequence (looked up): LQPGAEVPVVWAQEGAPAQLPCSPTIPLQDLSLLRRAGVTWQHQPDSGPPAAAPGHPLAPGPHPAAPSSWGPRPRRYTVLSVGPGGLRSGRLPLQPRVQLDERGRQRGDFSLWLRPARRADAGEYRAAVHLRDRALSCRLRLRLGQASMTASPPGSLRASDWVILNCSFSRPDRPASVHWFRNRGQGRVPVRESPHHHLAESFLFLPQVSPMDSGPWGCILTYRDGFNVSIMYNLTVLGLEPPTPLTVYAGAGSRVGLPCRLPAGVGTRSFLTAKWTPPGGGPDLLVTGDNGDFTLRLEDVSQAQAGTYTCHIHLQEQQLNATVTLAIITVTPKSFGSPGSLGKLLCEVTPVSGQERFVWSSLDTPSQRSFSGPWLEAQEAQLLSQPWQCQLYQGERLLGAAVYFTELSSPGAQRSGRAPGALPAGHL
Description: BLI (Octet), 1:1 fit. As to the method:
(§2) The association and dissociation curves were fit with 1:1 binding model, and the Ka/Kd/KD values for each antibody were calculated.
as §2
For orientation: Biolayer interferometry detects binding as a change in optical thickness at a sensor tip.

For assay [5], the target named is T3, human LAG3 (form used in Octet, Biacore …). Nature of the assay: BLI (Octet).

9 molecules from patent US20250313625A1 (ELPISCIENCE SUZHOU BIOPHARMA, published 2025) can be followed below.

B1: 038c (antibody, human IgG4, V domains shown)
VH: DVQVQESGPGLVKPSQSLSLTCSVTGYSITSGYYWNWIRQFPGNKLEWMGYISYDGSNEYNLSLKNRLSITRDTSKNQFFLKLNSVTTEDTATYYCAREEDGYYGGMDYWGQGTSVTVSS
VL: DIVMTQSHKFMSASVGVRVSITCRASQDVDTAVAWYQQKPGQSPKLLIYWASTRHTGVPDRFTGSGSGTDFTLTISNVQSEDLADYFCQQYSSYPYTFGGGTKLEIK
notes: human IgG4 S228P / kappa chimeric antibody; also called chimeric antibody 038; not shown: human kappa light chain constant region (pcDNA3.4-hIgGk vector)
Usually EC50 stands for the concentration at which the effect is half-maximal. The low end stands for greater potency, the high end for weaker potency. The term IC50 denotes the point on the concentration scale where inhibition reaches its midpoint. In assay [1], B1 came in with an EC50 of 2.3 nM. For the same molecule, in assay [2], the IC50 was determined as 5.2 nM and the “TOP blocking (%)” value worked out at 98.4%.

B2: hu029.53 (antibody, V domains shown)
VH: QVQLVESGGGLVKPGGSLRLSCAASGFTFSSYAMSWIRQAPGKGLEWVAYVTSGGDYIYYADTVKGRFTISRDDAKNSLYLQMNSLRAEDTAMYYCTRVAYDYEWYFDVWGQGALVTVSS
VL: DIQMTQSPSSVSASVGDRVTITCKASQDVTTAVAWYQQKPGKAPKLLIYSASYRYTGVPSRFSGSGSGTDFTLTISSLQPEDFATYYCQQHDSSPWTFGQGTKLEIK
notes: humanized from 029c
For orientation: Kd means the free concentration of one partner at which half of the binding sites on the other are occupied at equilibrium, for simple one-to-one binding. The koff is the first-order rate constant of dissociation. Broadly, the kon is the rate constant with which the complex forms. The low end stands for slower complex formation, the high end for faster complex formation. With B2, in assay [3], the “%Blocking at 2 nM” value was determined as 21.4%, the “%Blocking at 4 nM” value worked out at 31.9% and the “%Blocking at 8 nM” value was 98%. In addition, in assay [4], the Kd turned out to be 4.94 nM, the koff came to 0.0217 s⁻¹ and the kon came out at 4.38e+06 M⁻¹ s⁻¹.

B3: hu023.05 (antibody, human IgG4, V domains shown)
VH: QVQLVQSGAEVKKPGASVKVSCKASGYTFTESPMNWVRQAPGQGFEWMGIIYTDTGEPTYAEEFKGRVTMTRDTSTSTVYMELSSLRSEDTAVYFCASDYGSILYWYFDVWGQGTLVTVSS
VL: DIQMTQSPSSLSASVGDRVTITCKASQDVSTAVAWYQQKPGKSPKLLIYSASYRYTGVPSRFSGSGSGTDFTFTISSLQPEDFATYYCQQHYNAPPTFGQGTKLEIK
notes: humanized from 023c
In assay [5], B3 came in with a Kd of 0.616 nM, a koff of 0.000198 s⁻¹ and a kon of 321000 M⁻¹ s⁻¹.

B4: hu023.06 (antibody, human IgG4, V domains shown)
VH: QVQLVQSGAEVKKPGASVKVSCKASGYTFTESPMNWVRQAPGQGFEWMGIIYTDTGEPTYAEEFKGRVTMTRDTSTSTVYMELSSLRSEDTAVYFCASDYGSILYWYFDVWGQGTLVTVSS
VL: DIQMTQSPSSLSTSVGDRVTITCKASQDVSTAVAWYQQKPGKSPKLLIYSASYRYTGVPSRFSGSGSGTDFTFTISSVQPEDFATYYCQQHYNAPPTFGQGTKLEIK
notes: humanized from 023c
Turning to B4, in assay [5], the Kd stood at 0.657 nM, the off-rate constant (koff) was found to be 0.000161 s⁻¹ and the kon was 246000 M⁻¹ s⁻¹.

B5: hu023.12 (antibody, human IgG4, V domains shown)
VH: QVQLVQSGPELKKPGASVKVSCKASGYTFTESPMNWVRQAPGQGFEWMGIIYTDTGEPTYAEEFKGRFVFSLDTSVSTAYLQISSLKAEDTAVYFCVSDYGSILYWYFDVWGQGTLVTVSS
VL: DIQMTQSPSSLSTSVGDRVTITCKASQDVSTAVAWYQQKPGKSPKLLIYSASYRYTGVPSRFSGSGSGTDFTFTISSVQPEDFATYYCQQHYNAPPTFGQGTKLEIK
notes: humanized from 023c
Take B5: in assay [5], the dissociation constant (Kd) turned out to be 0.189 nM, the dissociation rate constant (koff) was determined as 5.58e-05 s⁻¹ and the kon was 296000 M⁻¹ s⁻¹.

B6: hu029.40 (antibody, V domains shown)
VH: QVQLVESGGGLVKPGGSLRLSCAASGFTFSSYAMSWVRQAPGKRLEWVAYVTSGGDYIYYADTVKGRFTISRDDAKNSLYLQMNSLRAEDTAMYYCTRVAYDYEWYFDVWGQGALVTVSS
VL: DIQMTQSPSSVSTSVGDRVTITCKASQDVTTAVAWYQQKPGKAPKLLIYSASYRYTGVPSRFSGSGSGTDFTFTISSVQPEDFATYYCQQHDSSPWTFGQGTKLEIK
notes: humanized from 029c
On to B6, for which, in assay [3], the “%Blocking at 2 nM” value turned out to be 19.6%, the “%Blocking at 4 nM” value was found to be 43.4% and the “%Blocking at 8 nM” value worked out at 99.1%. Besides, in assay [4], the Kd turned out to be 4.79 nM, the koff was found to be 0.0224 s⁻¹ and the kon was found to be 4.68e+06 M⁻¹ s⁻¹.

B7: hu023.14 (antibody, human IgG4, V domains shown)
VH: QIQLVQSGPELKKPGASVKISCKASGYTFTESPMNWVRQAPGQGFEWMGIIYTDTGEPTYAEEFKGRFVFSLDTSVSTAYLQISSLKAEDTAVYFCVSDYGSILYWYFDVWGQGTLVTVSS
VL: DIQMTQSPSSLSASVGDRVTITCKASQDVSTAVAWYQQKPGKSPKLLIYSASYRYTGVPSRFSGSGSGTDFTFTISSLQPEDFATYYCQQHYNAPPTFGQGTKLEIK
notes: humanized from 023c
For B7, in assay [5], the dissociation constant (Kd) stood at 0.24 nM, the koff was found to be 7.72e-05 s⁻¹ and the kon amounted to 322000 M⁻¹ s⁻¹.

B8: hu023.08 (antibody, human IgG4, V domains shown)
VH: QVQLVQSGPEVKKPGASVKVSCKASGYTFTESPMNWVRQAPGQGFEWMGIIYTDTGEPTYAEEFKGRVTMTLDTSTSTVYMELSSLRSEDTAVYFCASDYGSILYWYFDVWGQGTLVTVSS
VL: DIQMTQSPSSLSASVGDRVTITCKASQDVSTAVAWYQQKPGKSPKLLIYSASYRYTGVPSRFSGSGSGTDFTFTISSLQPEDFATYYCQQHYNAPPTFGQGTKLEIK
notes: humanized from 023c
As to B8, in assay [5], the Kd was 0.689 nM, the koff is 0.000219 s⁻¹ and the kon was determined as 318000 M⁻¹ s⁻¹.

B9: hu023.09 (antibody, human IgG4, V domains shown)
VH: QVQLVQSGPEVKKPGASVKVSCKASGYTFTESPMNWVRQAPGQGFEWMGIIYTDTGEPTYAEEFKGRVTMTLDTSTSTVYMELSSLRSEDTAVYFCASDYGSILYWYFDVWGQGTLVTVSS
VL: DIQMTQSPSSLSTSVGDRVTITCKASQDVSTAVAWYQQKPGKSPKLLIYSASYRYTGVPSRFSGSGSGTDFTFTISSVQPEDFATYYCQQHYNAPPTFGQGTKLEIK
notes: humanized from 023c
Turning to B9, in assay [5], the Kd is 0.704 nM, the koff was determined as 0.000204 s⁻¹ and the kon came out at 290000 M⁻¹ s⁻¹.
